In patent US20180125921A1, “USE OF QBP1 PEPTIDE FOR THE INHIBITION OF MEMORY CONSOLIDATION” (CONSEJO SUPERIOR DE INVESTIGACIONES CIENTÍFICAS, priority 2015, published 2018) one finds formation of M (mechanostable) conformers, AFM-SMFS data, which are given here for 1 molecule.

The assay addresses Orb2A PLD (Drosophila), Q9VSR3. The assay is described as follows: cell-based or functional assay.

Ac-WKWWPGIF-NH2 [minimal active core of QBP1 (QBP1 fragment), Ac-WKWWPGIF-NH2] had a formation of M (mechanostable) conformers, AFM-SMFS of 16.1%.
